In patent publication US20210100858A1:

Target: Epidermal growth factor receptor (EGFR) on HT29 human colon adenocarcinoma cells (human) (UniProt P00533)
Experiment: cell-based or functional assay

Substance “Hi-D::EGF phage (λF7 phage with maximal EGF surface decoration, generated using SupD E. coli host at 37° C.) (from UniProt P03712 1-110)” has an EOP of phage recovered from HT29 spheroids, intercellular, 30 min of 0.00156 EOP, an EOP of phage recovered from HT29 spheroids, intercellular, 4 h of 0.0572 EOP and an EOP of phage recovered from HT29 spheroids, intercellular, 8 h of 0.0183 EOP. It also gave an EOP of phage recovered from HT29 spheroids, intercellular, 24 h of 0.0113 EOP, an EOP of phage recovered from lysed HT29 cells, intracellular, 30 min of 0.00013 EOP and an EOP of phage recovered from lysed HT29 cells, intracellular, 4 h of 0.00392 EOP. It also gave an EOP of phage recovered from lysed HT29 cells, intracellular, 8 h of 0.00147 EOP, an EOP of phage recovered from lysed HT29 cells, intracellular, 24 h of 0.000312 EOP and an HT29 spheroid diameter on day 20, 10^4 PFU phage of 1330 µm. For the same substance, the HT29 spheroid diameter on day 20, 10^8 PFU phage was 422 µm, the recovery of phage particles from the interstitial spaces and within cells at 30 min, against wildtype phages was 150 fold and the size of HT29 spheroids on day 20 against control spheroids, high concentration of phage was 3 fold.
